These results are taken from patent US20150018409A1, “CHIMERIC POLYPEPTIDES AND THEIR USE” (ADRIACELL S.P.A., priority 2003, published 2015).

For assay [1], the system named is p53 positive or negative cells. In words: Cell cycle response to DSB's by FACS in p53 positive or negative cells. The format is cell-based. The protocol:
The cell cycle response to DSB's induced by […] treatment were analysed in p53 positive or negative cells. […] Incubation for 36 hours of the cell lines mutated for ATM (AT-5) with […] results in a transient retardation of the cell cycle, as was determined by a DNA content FACS analysis. […] A single addition of […] for 60 minutes to the AT-5 cells was sufficient to induce cell cycle stop after 24 hours (FIG. 8A) and finally leads to cell death, obtained from not correctly ligated DNA, and consequently, the clonogenic activity after a single treatment with […] for 60 minutes was below 0.02% for AT-5 cells. […] In addition, the cells were incubated with adriamycin as a control.

Assay [2] deals with HCT116 cells (hMLH1 mutated). In words: Clonogenic assay of mismatch repair defective cells. The assay is classed as cell-based, human. As to conditions: similar assays.
Experimental: These cells were plated into multiwell-microtiter-plates at different concentrations and treated with [sequence] as indicated and stained with GIEMSA-blu. The multiwell-microtiter-plates (for an example see FIG. 13A) were scanned using the VersaDOC® (BioRad) imaging system and growth was automatically quantified with the software package Quantify One® for the analysis of the microtiter-plates (microtiter-plates scanning software).
Assay [3] has as its system neuroblasoma cell lines (IMR32, LAN5, GI-LIN) and primary neuroblastoma cell isolates. The conditions noted are these: upon treatment with SCPVUTAT
Here is the method:
For the analysis the DNA content was assayed with FACS after staining of the cells with propidium J^−.

The subject of assay [4] is MRC-5 cells (ATM positive). As to conditions: SCPVUTAT 100 nM or HU 1 mM.
Experimental: [sequence] dependent Ser^15 phosphorylation of p53. The ATM positive cell-line MRC5 was treated with [sequence] (100 nM, SC) or with hydroxyurea (1 mM, HU) for the time periods as indicated; as a control non treated cells were used (O).
P53 phosphorylation on Ser15 in response to [sequence] treatment was assayed in ATM positive or negative cell lines (MRC-5 and AT-5 respectively). For comparison parallel experiments were done with hydroxyurea (HU). […] For this immunoblotting experiments were done with extracts after treatment, by using specific antibodies to a phosphorylated Ser15 in p53 for specific detection.
The test system of assay [5] is MO59J (DNA-PKcs−/−) glioblastoma cells compared to MO59K. Description: Colony forming assay with automatic analysis (VersaDoc). The format is cell-based, human. Set-up: dose or concentration left out as unconfirmed. The conditions noted are these: single treatment for 12 hours. The text has this:
Statistical analysis of the results was done and is represented as a histogram. […] An example of the colony forming assay is shown. The assay was done employing various concentrations of cells in the order of three magnitudes (from the upper to the lower rows, 1×10^4, 2×10^3, 4×10^2, 8×10). On the right B), the histograms of the results from the colony forming assay of the cell-lines MO59J compared to MO59K is shown. The assays were done as in FIG. 9 but analysed with the aid of the Versadoc 4 (BioRad) system. […]

Another assay relates to V3 (DNA-PKcs−/−) cells. In words: Clonogenic assay of CHO cells mutated in NHEJ. The format is cell-based, rodent. The conditions noted are these: 100 nM, 24 hours, grown 7-10 days (FIG. 9 black bar).
A further assay has as its system U2OS cells. Description: FACS analysis of DNA content / cell cycle distribution. The assay is classed as cell-based, human. As to conditions: for cells in G2 phase: control 20%. The protocol:
The distribution of the various phases of the cell cycle of the protein transduced cells was analysed by FACS analysis. Distribution of the DNA content of the cell populations was detected. 2n represents a diploid DNA equivalent (non replicated; G1 phase), 4n represents the tetraploid DNA equivalent (replicated; G2/M phase). For the FACS analysis the cells were separated employing the DDM mode that allows to estimate DNA content of a single cell. U2OS cells were grown for 24 hours (upper row) or 48 hours (lower row) in the presence of increasing amounts of […] (10 nM, 50 nM, 100 nM) as indicated and with only one addition of proteins; non treated cells (control); cells treated with a nuclease impaired derivative of […] (SC34, 100 nM). All the histograms shown represent a measure of DNA content relative to the cell numbers as indicated only on the upper right panel.
U2OS cells were incubated with […] (10 nM, panel B), or with H2O2 (10 μM, panelC), or both ([…], 10 nM; H2O2, 10 μM; panel D), or with no agent as a control (panel A). Further treatment cells were analysed in FACS for DNA content; the percentage of the various cell cycle phases are indicated at the bottoms of the individual histograms.
Finally, to confirm that the DSB's that are produced in vivo also induce perturbations in the cell cycle, DNA content in the various phases of the cell cycle was analysed by Fluorescence Activated Cell Sorting (FACS) after transduction of the proteins of the invention. After the treatment with diverse proteins at various concentrations and during different timepoints, the cells were fixed in 70% ethanol, treated with RNAse A and stained with propidium […].
The FACS analysis was done using a FACSCalibur™ (Becton Dickinson) apparatus. The obtained data were evaluated with the CellQuest™ software program package. At least 3×10^4 single events for every sample were analysed in the DDM mode. The statistic analysis of the DNA content distribution during the cell cycle was done with the MODFIT LT™ software program package. A 2N diploid DNA content correspond to cells in the G1 phase of the cell cycle, 4N represents a relative tetraploid DNA content and corresponds to G2 and/or M phase of the cell cycle. An intermediate DNA content represents S phase corresponding to a population actively replicating DNA during the cell cycle and a content that is below diploid 2N represents cells in apoptosis.
U2OS cells were incubated with 10 nM […] and with 10 μM H2O2 alone or in combination ant the cell cycle profile was analysed by FACS.

Another assay deals with HCT116 (p53(+/+)) cells. In words: Cell cycle arrest point: nuclear morphology and immunofluorescence of cyclin B1 and Cdc25C. The format is cell-based, human. The protocol:
Microscopic analysis of the HCT116 (p53(+/+)) cells not treated, or treated with […] (100 nM) for 30 hours, or with taxol (0.2 μg/ml). Immunofluorescence analysis was done with primary antibodies specific for cyclin B1 or specific for Cdc25C and coloured with secondary conjugates of FITC (green, cyclinB1) or TRITC (red, Cdc25C).
Moreover, the initiation of mitosis, i.e. induced with the microtuble blocking agents Nocodazol or Taxol, can be detected by the nuclear activity of the Cdc2 kinase and also by nuclear localisation of Cdc25C. These assays allow to dissect the exact point of cell cycle arrest after […] treatment and this further allows to detect disturbations in this phase of the cell cycle relative to a positive control. Similar experiments are well known in the art also for other phases of the cell cycle. The assay shown in FIG. 7A and the immunofluorescence analysis shown in FIG. 14 show examples for these types of experiments.
HCT116 (p53(+/+)) not treated, or treated for 30 hours with […] (100 nM), or with Taxol (0.2 μg/ml) were fixated with 3% PFA and treated with specific antibodies to cyclin B1 or for Cdc25C. The immunofluorescence was analysed with the microscope (see FIG. 14) with specific primary antibodies to cyclin B1 conjugated to FITC labelled secondary antibodies (green) or with specific primary antibodies to Cdc25C conjugated to TRITC labelled secondary antibodies (red).

Experimental for V3 (DNA-PKcs−/−) cells: Clonogenic assay of CHO cells that were mutated for proteins involved in the NHEJ repair-pathway treated with [sequence]. The cell lines used are AA8 (parental line), V3 (DNA-PCCS^(−/−)), xrss5 (KU80^(−/−)) and XR-1 (XRCC4^(−/−)), HIS P1.13-11 (KU70^(−/−)) and the corresponding parental cell line CHO-K1. Various dilutions of the CHO cells containing the NHEJ mutations as indicated were treated for 24 hours with [sequence] (25 nM, grey bars; 100 nM, black bars) or not treated (white bars); the cells were washed and then grown for 7-10 days, stained with GIEMSA and colonies were counted.
Moreover these NHEJ mutant cells were tested with [sequence] in clonogenic, colony-outgrowth assays that were assayed after a single addition of [sequence] for 12 hours at a concentration of 10 nM (grey bars) or at a concentration of 75 nM (black bars) or without protein treatment (not treated, white bars). Seven to ten days after addition, cell growth was analysed by staining with GIEMSA-blue and quantification of diverse cell-concentrations. […] The multiwell-microtiter-plates (for an example see FIG. 13A) were scanned using the VersaDOC® (BioRad) imaging system and growth was automatically quantified with the software package Quantify One® for the analysis of the microtiter-plates (microtiter-plates scanning software).

B1: SCPVUTAT: single chain PvuII endonuclease (aa 1-157, GSGG linker, aa 2-157) fused to HIV Tat peptide and six histidine tag; SEQ ID NO:2 (protein, listed as Proteus vulgaris)
chain: MSHPDLNKLLELWPHIQEYQDLALKHGINDIFQDNGGKLLQVLLITGLTVLPGREGNDAVDNAGQEYELKSINIDLTKGFSTHHHMNPVIIAKYRQVPWIFAIYRGIAIEAIYRLEPKDLEFYYDKWERKWYSDGHKDINNPKIPVKYVMEHGTKIYGSGGSHPDLNKLLELWPHIQEYQDLALKHGINDIFQDNGGKLLQVLLITGLTVLPGREGNDAVDNAGQEYELKSINIDLTKGFSTHHHMNPVIIAKYRQVPWIFAIYRGIAIEAIYRLEPKDLEFYYDKWERKWYSDGHKDINNPKIPVKYVMEHGTKIYGSYGRKKRRQRRRGGSHHHHHH
In the case of B1, the cell cycle response entry in assay [1] (cells negative for p53) was “do not exhibit arrest characteristics of the cell cycle”; in assay [1] (cells positive for p53) it was “cell cycle arrest behaviour in G1 and G2 with low S-phase values”. In assay [2], the “sensitivity in clonogenic assay” value was “do not show any increase in sensibility”. Moreover, the induction of apoptosis result in assay [3] is “significant amount of apoptosis was induced”. In addition, the p53-Ser15 phosphorylation entry in assay [4] is given as “specific phosphorylation of p53-Ser^15 is obtained”. The “sensitivity in colony forming assay versus parental MO59K” value in assay [5] is given as “significant differential increase in sensibility”. Further, the “colonies relative to non treated cells (100%)” value in the assay with V3 (DNA-PKcs−/−) cells is “below 1%”. Further, the “cells in G2 phase” value worked out at 28% in the assay on U2OS cells (10 nM SCPVUTAT alone) and 45% in the assay with U2OS cells (10 nM SCPVUTAT in combination with 10 μM H2O2). The “change of cell cycle distribution (DNA content)” value in the assay with U2OS cells (10 nM, incubation for 24 hours) is reported as “increase in the teraploid population”. Moreover, in the assay with HCT116 (p53(+/+)) cells (30 hours, SCPVUTAT 100 nM or Taxol 0.2 μg/ml), the “cell cycle stop from localisation of Cdc25C and cyclin B” value is given as “G2 phase stop”. Also, the cell cycle block result in the assay with HCT116 (p53(+/+)) cells (upon treatment with SCPVUTAT (100 nM)) is recorded as “reversible block in the phase of the cell cycle that corresponds to late S/G2”.
